The supplement of paper PMC5998384

Key:
[1] = test system: HeLa Kyoto; test: melting temperature (median over replicates), in situ; higher = more thermally stable
[2] = test system: HeLa Kyoto; test: solubility change mitosis vs G1/S (difference of NP-40 vs SDS log2 ratios) (log2 ratio difference); higher = more soluble in mitosis
[3] = test system: HeLa Kyoto; test: thermal stability score vs G1/S (z-score of summed log2 fold changes over temperatures); higher = more thermally stable than in G1/S
[4] = test system: HeLa Kyoto; test: solubility in G1/S (NP-40 vs SDS abundance) (log2 ratio); higher = more soluble; settings: cell cycle stage: G1/S
[5] = cell cycle stage: early G1 (4.5 h after nocodazole release)
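For melting temperature (median over replicates), in situ in this document: HeLa Kyoto cells synchronized by double thymidine or nocodazole block, proteins quantified by TMT10plex mass spectrometry, three independent biological replicates.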
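For solubility change mitosis vs G1/S (difference of NP-40 vs SDS log2 ratios) in this document: synchronized HeLa Kyoto cells (double thymidine block for G1/S, nocodazole release for mitosis), protein amounts in NP-40 versus SDS lysates quantified by mass spectrometry, three biological replicates.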
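For solubility in G1/S (NP-40 vs SDS abundance) in this document: HeLa Kyoto cells arrested at G1/S by double thymidine block, proteins quantified by TMT10plex mass spectrometry in mild NP-40 versus SDS extracts, three biological replicates.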
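For thermal stability score vs G1/S (z-score of summed log2 fold changes over temperatures) in this document: synchronized HeLa Kyoto cells, proteins quantified by TMT10plex mass spectrometry, three biological replicates, mitosis taken 0.5 h after nocodazole release, G1/S directly after double thymidine block.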

LSM3, sequence (chain, as listed by the source): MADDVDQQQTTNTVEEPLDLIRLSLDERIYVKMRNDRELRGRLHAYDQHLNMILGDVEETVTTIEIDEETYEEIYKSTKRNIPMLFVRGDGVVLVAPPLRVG

## MSEQSICQARAAVMVYDDANKKWVPAGGSTGFSRVHIYHHTGNNTFRVVGRKIQDHQVVINCAIPKGLKYNQATQTFHQWRDARQVYGLNFGSKEDANVFASAMMHALEVLNSQETGPTLPRQNSQLPAQVQNGPSQEELEIQRRQLQEQQRQKELERERLERERMERERLERERLERERLERERLEQEQLERERQERERQERLERQERLERQERLERQERLDRERQERQERERLERLERERQERERQEQLEREQLEWERERRISSAAAPASVETPLNSVLGDSSASEPGLQAASQPAETPSQQGIVLGPLAPPPPPPLPPGPAQASVALPPPPGPPPPPPLPSTGPPPPPPPPPLPNQVPPPPPPPPAPPLPASGFFLASMSEDNRPLTGLAAAIAGAKLRKVSRMEDTSFPSGGNAIGVNSASSKTDTGRGNGPLPLGGSGLMEEMSALLARRRRIAEKGSTIETEQKEDKGEDSEPVTSKASSTSTPEPTRKPWERTNTMNGSKSPVISRRDSPRKNQIVFDNRSYDSLHRPKSTPLSQPSANGVQTEGLDYDRLKQDILDEMRKELTKLKEELIDAIRQELSKSNTA [ENAH]
[1]; cell cycle stage: G1/S
  melting temperature: 51.7 °C
[1]; cell cycle stage: mitosis
  melting temperature: 51.9 °C
[2]
  solubility change mitosis (log2): 0.0923
[3]; [5]
  thermal stability score: 2.28
[3]; cell cycle stage: mitosis
  thermal stability score: 8.8
[4]
  solubility in G1/S (log2): 0.13

## LSM3
[1]; cell cycle stage: G1/S
  melting temperature: 55.4 °C
[1]; cell cycle stage: mitosis
  melting temperature: 53.4 °C
[2]
  solubility change mitosis (log2): 0.115
[3]; [5]
  thermal stability score: -1.12
[3]; cell cycle stage: mitosis
  thermal stability score: -1.32
[4]
  solubility in G1/S (log2): 0.0123

## MRPGTGAERGGLMVSEMESHPPSQGPGDGERRLSGSSLCSGSWVSADGFLRRRPSMGHPGMHYAPMGMHPMGQRANMPPVPHGMMPQMMPPMGGPPMGQMPGMMSSVMPGMMMSHMSQASMQPALPPGVNSMDVAAGTASGAKSMWTEHKSPDGRTYYYNTETKQSTWEKPDDLKTPAEQLLSKCPWKEYKSDSGKPYYYNSQTKESRWAKPKELEDLEGYQNTIVAGSLITKSNLHAMIKAEESSKQEECTTTSTAPVPTTEIPTTMSTMAAAEAAAAVVAAAAAAAAAAAAANANASTSASNTVSGTVPVVPEPEVTSIVATVVDNENTVTISTEEQAQLTSTPAIQDQSVEVSSNTGEETSKQETVADFTPKKEEEESQPAKKTYTWNTKEEAKQAFKELLKEKRVPSNASWEQAMKMIINDPRYSALAKLSEKKQAFNAYKVQTEKEEKEEARSKYKEAKESFQRFLENHEKMTSTTRYKKAEQMFGEMEVWNAISERDRLEIYEDVLFFLSKKEKEQAKQLRKRNWEALKNILDNMANVTYSTTWSEAQQYLMDNPTFAEDEELQNMDKEDALICFEEHIRALEKEEEEEKQKSLLRERRRQRKNRESFQIFLDELHEHGQLHSMSSWMELYPTISSDIRFTNMLGQPGSTALDLFKFYVEDLKARYHDEKKIIKDILKDKGFVVEVNTTFEDFVAIISSTKRSTTLDAGNIKLAFNSLLEKAEAREREREKEEARKMKRKESAFKSMLKQAAPPIELDAVWEDIRERFVKEPAFEDITLESERKRIFKDFMHVLEHECQHHHSKNKKHSKKSKKHHRKRSRSRSGSDSDDDDSHSKKKRQRSESRSASEHSSSAESERSYKKSKKHKKKSKKRRHKSDSPESDAEREKDKKEKDRESEKDRTRQRSESKHKSPKKKTGKDSGNWDTSGSELSEGELEKRRRTLLEQLDDDQ [PRPF40A]
[1]; cell cycle stage: G1/S
  melting temperature: 47.1 °C
[1]; cell cycle stage: mitosis
  melting temperature: 48.8 °C
[2]
  solubility change mitosis (log2): 0.633
[3]; [5]
  thermal stability score: 1.36
[3]; cell cycle stage: mitosis
  thermal stability score: 6.53
[4]
  solubility in G1/S (log2): -1.2

## MGMWASLDALWEMPAEKRIFGAVLLFSWTVYLWETFLAQRQRRIYKTTTHVPPELGQIMDSETFEKSRLYQLDKSTFSFWSGLYSETEGTLILLFGGIPYLWRLSGRFCGYAGFGPEYEITQSLVFLLLATLFSALTGLPWSLYNTFVIEEKHGFNQQTLGFFMKDAIKKFVVTQCILLPVSSLLLYIIKIGGDYFFIYAWLFTLVVSLVLVTIYADYIAPLFDKFTPLPEGKLKEEIEVMAKSIDFPLTKVYVVEGSKRSSHSNAYFYGFFKNKRIVLFDTLLEEYSVLNKDIQEDSGMEPRNEEEGNSEEIKAKVKNKKQGCKNEEVLAVLGHELGHWKLGHTVKNIIISQMNSFLCFFLFAVLIGRKELFAAFGFYDSQPTLIGLLIIFQFIFSPYNEVLSFCLTVLSRRFEFQADAFAKKLGKAKDLYSALIKLNKDNLGFPVSDWLFSMWHYSHPPLLERLQALKTMKQH [ZMPSTE24]
[1]; cell cycle stage: G1/S
  melting temperature: 55.2 °C
[1]; cell cycle stage: mitosis
  melting temperature: 54.4 °C
[2]
  solubility change mitosis (log2): -0.171
[3]; [5]
  thermal stability score: -0.261
[3]; cell cycle stage: mitosis
  thermal stability score: -0.906
[4]
  solubility in G1/S (log2): -0.147

## MTMDGDSSTTDASQLGISADYIGGSHYVIQPHDDTEDSMNDHEDTNGSKESFREQDIYLPIANVARIMKNAIPQTGKIAKDAKECVQECVSEFISFITSEASERCHQEKRKTINGEDILFAMSTLGFDSYVEPLKLYLQKFREAMKGEKGIGGAVTATDGLSEELTEEAFTNQLPAGLITTDGQQQNVMVYTTSYQQISGVQQIQFS [NFYB]
[1]; cell cycle stage: G1/S
  melting temperature: 54.5 °C
[1]; cell cycle stage: mitosis
  melting temperature: 54.5 °C
[2]
  solubility change mitosis (log2): 0.064
[3]; [5]
  thermal stability score: 0.178
[3]; cell cycle stage: mitosis
  thermal stability score: 0.0131
[4]
  solubility in G1/S (log2): 0.036
